For the assay, the target named is YukE with nsAA 2 (p-azidophenylalanine) incorporated at position 44, YukE(W44TAG) (B. subtilis) (UniProt C0SP85). The assay is described as follows: cross-linking; in vivo photo-crosslinking through p-azidophenylalanine (nsAA 2) in B. subtilis cells resuspended in 1x PBS, UV 365 nm for 15 min or 60 min on ice; lysates on 17% SDS-PAGE without reductant, anti-YukE immunoblot.

Here are results for 1 substance from publication PMC8440579.

For orientation: stoichiometry N means a count of units in the complex or per binding partner.

Regarding “YukE with nsAA 2 (p-azidophenylalanine) incorporated at position 44, YukE(W44TAG) (from UniProt C0SP85 1-97) (natural protein)”, the crosslinking efficiency was 100% and the stoichiometry N turned out to be 2.
